Measurements reported in the supplement of paper PMC7877785.
± gives the uncertainty stated by the source.

Experiment: self-splicing fitness, log relative to wild type (ln ratio); higher = more splicing; Tetrahymena group I intron in knt gene, E. coli kanamycin selection, DiMSum; sequences stand for … in CUCUCU…GGAGGGAAAAGUUAUCAGGCAUGCACCUGGUAGCUAGUCUUUAAACCAAUAGAUUGCAUCGGUUUAAAAGGCAAGACCGUCAAAUUGCGGGAAAGGGGUCAACAGCCGUUCAGUACCAAGUCUCAGGGGAAACUUUGAGAUGGCCUUGCAAAGGGUAUGGUAAUAAGCUGACGGACAUGGUCCUAACCACGCAGCCAAGUCCUAAGUCAACAGAUCUUCUGUUGAUAUGGAUGCAGUUCACAGACUAAAUGUCGGUCGGGGAAGAUGUAUUCUUCUCAUAAGAUAUAGUCGGACCUCUCCUUAAUGGGAGCUAGCGGAUGAAGUGAUGCAACACUGGAGCCGCUGGGAACUAAUUUGUAUGCGAAAGUAUAUUGAUUAGUUUUGGAGUACUCGUGGUCG
Outline: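 Fitness was computed with DiMSum as the error-weighted combination of replicate fold changes, kanamycin versus none, each normalised to wild type. The library randomised all eight intron nucleotides of the P1ex region, with the intron placed in the knt kanamycin-resistance gene on pET-22b(+) in E. coli BL21(DE3). Six replicate transformations were grown overnight at 37°C or 30°C on LB agar with or without 25 μg/mL kanamycin, plus 100 μg/mL carbenicillin, 50 μM IPTG and 0.2% rhamnose. Pooled colonies were amplicon-sequenced on an Illumina HiSeq 2500.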

Sequence	self-splicing fitness (ln) (30 °C)	self-splicing fitness (ln) (37 °C)
AGCAAGCAAUAUUACGCGGG	-3.87 ± 0.21	-3.71 ± 0.26
AGAUAGCAAUAUUACGAAAA	-2.71 ± 0.24	-2.12 ± 0.22
AAAGAGCAAUAUUACGAGAG	-3.36 ± 0.19	-3.42 ± 0.21
AGUAAGCAAUAUUACGGUGA	-2.73 ± 0.17	-1.21 ± 0.14
GCGUAGCAAUAUUACGUGUG	-4.47 ± 0.42	-2.77 ± 0.2
GAGUAGCAAUAUUACGGGUC	-2.57 ± 0.2	-1.81 ± 0.18
CGUCAGCAAUAUUACGCUGC	-2.95 ± 0.26	-2.22 ± 0.35
CGACAGCAAUAUUACGUCAA	-1.99 ± 0.14	-1.21 ± 0.12
CAAAAGCAAUAUUACGGAUC	-3.73 ± 0.22	-1.98 ± 0.16
CGCCAGCAAUAUUACGGACG	-4.63 ± 0.31	-2.95 ± 0.28
GCAUAGCAAUAUUACGCCGG	-3 ± 0.28	-1.01 ± 0.2
GAUGAGCAAUAUUACGAUGA	-2.24 ± 0.2	-2.79 ± 0.27
CCCUAGCAAUAUUACGUGAC	-2.85 ± 0.15	-2.29 ± 0.34
AAAAAGCAAUAUUACGAUGC	-1.66 ± 0.091	-0.868 ± 0.11
GCUUAGCAAUAUUACGGUUU	-1.4 ± 0.068	-0.908 ± 0.074
GACUAGCAAUAUUACGUAAC	-1.33 ± 0.073	-0.875 ± 0.1
UUUAAGCAAUAUUACGAACU	-2.51 ± 0.23	-1.98 ± 0.23
GUGUAGCAAUAUUACGUCGA	-1.11 ± 0.14	-0.586 ± 0.12
AAUCAGCAAUAUUACGUGUC	-0.924 ± 0.053	-0.319 ± 0.069
GCACAGCAAUAUUACGUACG	-0.945 ± 0.092	-0.0901 ± 0.098
GCAUAGCAAUAUUACGGCUU	-0.36 ± 0.11	-0.322 ± 0.11
GAGGAGCAAUAUUACGAAUG	–	-1.7 ± 0.43
AUGCAGCAAUAUUACGUGCC	-1.08 ± 0.11	-0.869 ± 0.15
UCAAAGCAAUAUUACGCGUU	-3.65 ± 0.18	-3.64 ± 0.29
UUGAAGCAAUAUUACGGGCG	-0.128 ± 0.061	0.407 ± 0.084

Sequence	self-splicing fitness (ln) (30 °C)	self-splicing fitness (ln) (37 °C)
AGCCAGCAAUAUUACGGCAU	-1.31 ± 0.099	-1.15 ± 0.12
GCAGAGCAAUAUUACGAAUA	-3.67 ± 0.32	-2.78 ± 0.26
CAGCAGCAAUAUUACGACGA	-1.68 ± 0.13	-0.501 ± 0.096
AAUAAGCAAUAUUACGGCGG	-0.94 ± 0.093	-0.865 ± 0.1
UGUCAGCAAUAUUACGUCUG	-0.693 ± 0.1	-0.104 ± 0.11
CGCUAGCAAUAUUACGAAGU	-3.12 ± 0.22	-2.28 ± 0.31
UUGGAGCAAUAUUACGCCGG	–	-1.08 ± 0.34
GACCAGCAAUAUUACGGGUC	-4.01 ± 0.21	-3.33 ± 0.22
UAAUAGCAAUAUUACGUUUG	-0.989 ± 0.099	0.00265 ± 0.12
CCCGAGCAAUAUUACGACUA	-2.29 ± 0.36	–
GCAGAGCAAUAUUACGGGAA	-2.68 ± 0.19	-1.96 ± 0.18
GCGGAGCAAUAUUACGAUAC	-1.78 ± 0.18	-2.35 ± 0.33
CCGCAGCAAUAUUACGCCUA	-3.92 ± 0.31	-3.58 ± 0.3
CUCGAGCAAUAUUACGCGGA	-3.05 ± 0.24	-2.63 ± 0.22
ACUAAGCAAUAUUACGUUCU	-0.391 ± 0.071	-0.412 ± 0.094
AAACAGCAAUAUUACGAACA	-1.78 ± 0.09	-0.635 ± 0.084
CCGGAGCAAUAUUACGCGAG	-2.87 ± 0.3	-1.79 ± 0.27
GUACAGCAAUAUUACGCAUG	-2.26 ± 0.075	-1.03 ± 0.08
CUAAAGCAAUAUUACGCACU	-3.41 ± 0.2	-2.34 ± 0.32
CCUCAGCAAUAUUACGAUUG	-1.31 ± 0.068	-0.558 ± 0.084
CAGCAGCAAUAUUACGGGGU	-3.28 ± 0.15	-2.57 ± 0.16
CACGAGCAAUAUUACGAGAC	-2.99 ± 0.2	-1.89 ± 0.3
AGAAAGCAAUAUUACGGUCU	-1.11 ± 0.082	-0.58 ± 0.09
GCUUAGCAAUAUUACGCGAG	-2.04 ± 0.22	-2.56 ± 0.33
GGUAAGCAAUAUUACGCCGC	-3.46 ± 0.43	-1.41 ± 0.27

Sequence	self-splicing fitness (ln) (30 °C)	self-splicing fitness (ln) (37 °C)
CGACAGCAAUAUUACGUACA	-0.66 ± 0.078	-0.392 ± 0.099
CCCGAGCAAUAUUACGCAUC	-2 ± 0.15	-1.45 ± 0.2
UUAAAGCAAUAUUACGCGUA	-0.515 ± 0.12	0.118 ± 0.14
AGGCAGCAAUAUUACGCUAG	-3.53 ± 0.25	-3.04 ± 0.27
AGCCAGCAAUAUUACGACAC	-2.83 ± 0.28	-1.55 ± 0.27
CAGCAGCAAUAUUACGAAAG	-0.597 ± 0.09	-0.18 ± 0.12
UCGCAGCAAUAUUACGCGCA	-0.382 ± 0.091	-0.601 ± 0.078
ACUUAGCAAUAUUACGUCUU	-0.647 ± 0.084	-4.56e-06 ± 0.099
UGUGAGCAAUAUUACGUGCU	-3.34 ± 0.29	-3.41 ± 0.33
CUGGAGCAAUAUUACGUGGU	-3.53 ± 0.22	-2.4 ± 0.35
UGCCAGCAAUAUUACGGGAC	-3.51 ± 0.34	-1.95 ± 0.3
CCGGAGCAAUAUUACGUCAA	-4.11 ± 0.32	-3.39 ± 0.26
GCUCAGCAAUAUUACGGUAU	-1.14 ± 0.061	0.0133 ± 0.075
CGCAAGCAAUAUUACGAACA	-0.432 ± 0.1	0.252 ± 0.1
GUCCAGCAAUAUUACGCGGU	-3.19 ± 0.24	-2.14 ± 0.17
CGAGAGCAAUAUUACGCCGU	-2.28 ± 0.49	–
CGAUAGCAAUAUUACGGAUA	–	-0.838 ± 0.19
AUGAAGCAAUAUUACGUCGA	-0.936 ± 0.1	0.22 ± 0.097
GACUAGCAAUAUUACGGAUG	-2.9 ± 0.11	-1.29 ± 0.1
ACAUAGCAAUAUUACGGUAG	-4.45 ± 0.42	-2.89 ± 0.32
GCACAGCAAUAUUACGCUAA	-1.6 ± 0.092	-0.281 ± 0.089
CUUGAGCAAUAUUACGUGGU	-2.61 ± 0.15	-2.74 ± 0.19
GCGAAGCAAUAUUACGUCAU	-2.72 ± 0.15	-1.65 ± 0.14
GCACAGCAAUAUUACGAGUA	-1.31 ± 0.084	-0.881 ± 0.088
GUUAAGCAAUAUUACGCACC	-2.89 ± 0.3	-2.13 ± 0.32

Sequence	self-splicing fitness (ln) (30 °C)	self-splicing fitness (ln) (37 °C)
UCUAAGCAAUAUUACGUGGC	-3.09 ± 0.19	-3.11 ± 0.34
CGGUAGCAAUAUUACGUAAG	0.00223 ± 0.095	0.329 ± 0.11
CGGCAGCAAUAUUACGUAAU	-3.38 ± 0.18	-1.69 ± 0.22
AGUGAGCAAUAUUACGGAAG	-2.58 ± 0.25	–
AGCGAGCAAUAUUACGCGAC	-2.33 ± 0.27	–
CUAGAGCAAUAUUACGGUGA	-3.58 ± 0.16	-1.46 ± 0.17
GAAGAGCAAUAUUACGCUAU	-2.39 ± 0.24	-2.79 ± 0.48
AGGCAGCAAUAUUACGUUUA	-1.33 ± 0.072	-0.496 ± 0.08
GUGUAGCAAUAUUACGGCCC	0.713 ± 0.23	0.583 ± 0.3
UCAAAGCAAUAUUACGUCGC	-3.36 ± 0.18	-2.43 ± 0.25
CUUAAGCAAUAUUACGACUG	0.139 ± 0.087	-0.589 ± 0.13
UGCAAGCAAUAUUACGCCCC	-0.548 ± 0.19	-0.556 ± 0.32
GUAGAGCAAUAUUACGUACC	-3.88 ± 0.47	-1.59 ± 0.37
GCAGAGCAAUAUUACGAAUG	-2.71 ± 0.35	–
CCCUAGCAAUAUUACGACCU	-3.5 ± 0.21	-2.68 ± 0.26
ACUAAGCAAUAUUACGCCUU	-1.09 ± 0.082	-0.381 ± 0.11
AUUCAGCAAUAUUACGAUCU	-0.272 ± 0.057	0.457 ± 0.078
AGACAGCAAUAUUACGGACU	-0.583 ± 0.068	-0.3 ± 0.087
UCAGAGCAAUAUUACGUGAA	-2.01 ± 0.15	-1.2 ± 0.21
UCGUAGCAAUAUUACGGUGC	-3.62 ± 0.33	-3.15 ± 0.47
GCGUAGCAAUAUUACGCGCC	-2.51 ± 0.35	-1.51 ± 0.45
GCGCAGCAAUAUUACGCGGU	-3.82 ± 0.28	-2.25 ± 0.22
AGCCAGCAAUAUUACGUCAC	–	-2.15 ± 0.44
